Here are results for 3 substances from PMC9044958.

In this assay the target is recombinant Fc-tagged VEGFR2 extracellular domain (VEGFR2-ECD) (UniProt P35968). The experiment in a line: SPR; Biacore 8K, single-cycle mode, 25°C, HBS-P+ buffer; Fc-tagged VEGFR2-ECD (180 nM) captured on a protein A sensor chip at about 1,400 to 1,700 RU; analytes at 1.25, 2.5, 5, 10 and 20 nM, 30 uL/min; KD from the first on and off rates of the bivalent model.
Chain of UniProt P35968 (P35968 20-764): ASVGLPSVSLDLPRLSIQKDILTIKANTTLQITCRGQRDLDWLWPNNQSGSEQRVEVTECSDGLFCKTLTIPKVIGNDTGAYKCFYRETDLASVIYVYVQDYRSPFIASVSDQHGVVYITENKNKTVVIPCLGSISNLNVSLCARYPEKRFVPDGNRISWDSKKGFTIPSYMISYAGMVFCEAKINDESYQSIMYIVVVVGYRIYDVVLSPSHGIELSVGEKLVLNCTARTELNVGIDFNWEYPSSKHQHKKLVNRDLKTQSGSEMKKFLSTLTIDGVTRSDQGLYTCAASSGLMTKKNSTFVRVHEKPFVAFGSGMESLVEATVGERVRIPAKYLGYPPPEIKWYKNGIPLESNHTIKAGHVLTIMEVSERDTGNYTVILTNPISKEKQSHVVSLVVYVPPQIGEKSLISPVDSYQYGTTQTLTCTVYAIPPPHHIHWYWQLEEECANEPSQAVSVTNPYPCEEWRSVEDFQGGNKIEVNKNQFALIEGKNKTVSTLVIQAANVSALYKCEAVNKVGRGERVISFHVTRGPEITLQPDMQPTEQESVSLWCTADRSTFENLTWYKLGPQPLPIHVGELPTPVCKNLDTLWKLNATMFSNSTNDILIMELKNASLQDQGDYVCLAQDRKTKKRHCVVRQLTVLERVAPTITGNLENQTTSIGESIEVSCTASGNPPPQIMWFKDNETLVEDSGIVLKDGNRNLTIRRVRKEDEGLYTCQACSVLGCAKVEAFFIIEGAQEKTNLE
For the substance recombinant human VEGF-A165 (ligand), the Kd was 6.91 nM.

Take “B. henselae-derived BafA passenger domain (BafABhe) (domain or fragment)”: the Kd was determined as 2.08 nM.

Take “B. bacilliformis-derived BafA passenger domain (BafABba) (domain or fragment)”: the Kd was 91.3 nM.
